Measured values taken from PMC6510816.

How the values were obtained:
YAP [1] = biological target: YAP (UniProt P46937); assay: Flag-14-3-3ζ co-IP, YAP blot; details: reference: Flag-14-3-3ζ wild type; sites S37
YAP [2] = biological target: YAP (UniProt P46937); assay: His-YAP Ni-NTA pull-down of Flag-14-3-3ζ IPs; details: reference: wild type with rERK2; sites S37

Substance | binding against the reference (YAP [1]) | binding against the reference (YAP [2])
14-3-3ζ (from UniProt P63104) Flag-14-3-3ζ S37A | stronger | –
14-3-3ζ (from UniProt P63104) S37A with rERK2 | – | gained
